The record followed here is patent US12410253B2, “Compositions comprising anti-NRP2 antibodies” (aTyr Pharma, Inc., priority 2019, dated 2025).

The test has as its target T1, NRP2/KDR(VEGFR2) (Homo sapiens, UniProt O60462).
T1 construct: The complete extracellular domain and transmembrane helices of NRP2a (version 2), NRP2b (version 5); expressed in transfected cells; host or cells: Expi293, transient co-transfection
T1 sequence (O60462 23-859 isoform O60462-3 limits assumed): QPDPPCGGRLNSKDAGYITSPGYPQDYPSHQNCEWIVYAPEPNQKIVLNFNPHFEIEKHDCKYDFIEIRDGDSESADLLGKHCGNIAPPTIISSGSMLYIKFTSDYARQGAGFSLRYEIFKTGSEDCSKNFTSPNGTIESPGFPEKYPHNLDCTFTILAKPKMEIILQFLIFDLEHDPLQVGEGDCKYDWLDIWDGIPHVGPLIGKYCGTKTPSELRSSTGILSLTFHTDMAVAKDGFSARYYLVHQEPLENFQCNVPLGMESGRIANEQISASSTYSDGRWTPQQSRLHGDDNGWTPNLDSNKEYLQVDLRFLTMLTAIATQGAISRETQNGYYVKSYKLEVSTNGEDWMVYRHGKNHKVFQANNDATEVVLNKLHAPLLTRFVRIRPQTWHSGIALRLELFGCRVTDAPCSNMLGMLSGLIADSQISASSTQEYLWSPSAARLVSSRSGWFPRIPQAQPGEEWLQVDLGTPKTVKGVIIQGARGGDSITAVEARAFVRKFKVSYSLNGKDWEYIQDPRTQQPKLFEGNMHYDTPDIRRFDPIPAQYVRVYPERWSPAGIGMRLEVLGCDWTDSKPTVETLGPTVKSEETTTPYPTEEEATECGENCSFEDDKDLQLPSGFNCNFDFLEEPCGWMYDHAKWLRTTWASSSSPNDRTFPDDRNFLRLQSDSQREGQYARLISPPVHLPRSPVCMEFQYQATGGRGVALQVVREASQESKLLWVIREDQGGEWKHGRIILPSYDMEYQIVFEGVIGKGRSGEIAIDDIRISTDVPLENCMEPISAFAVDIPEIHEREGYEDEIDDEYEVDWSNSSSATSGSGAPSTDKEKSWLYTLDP
Kind of test: Split-luciferase receptor dimerization assay, NRP2/KDR with VEGF-A. In kind it is cell-based. Conditions: antibody 100 nM; ligand induced dimerization. On the procedure: To further extend the assessment of the biological activity of the anti-NRP2 antibodies, their activity was assessed in a receptor dimerization assay. In brief, vectors encoding a split luciferase pBiT1.1 and pBiT2.1 were obtained from Promega corporation (Madison, Wisconsin). The complete extracellular domain and transmembrane helices of NRP2a (version 2), NRP2b (version 5) (See table N1), FLT4 (VEGFR3), KDR (VEGFR2), and plexin A1 (PLXNA1) were cloned into the vectors and screened for optimal orientation, receptor density, and ligand induced dimerization, following established methods. […] Cells were counted, and 100,000 live cells were plated in a well of a white luminometer plate in Live Cell Imaging Solution (Fisher). Nano-Glo assay substrate (Promega) was added, and the plate was read on a Glomax 96 luminometer at room temperature to establish baseline luminescence. Antibodies were added to the well at 100 nM and the plate was again read to establish a new baseline and monitor the effects of the antibodies on spontaneous receptor dimerization. Depending on the receptor pair, typically 200 nM SEMA3F-p95 (aTyr Pharma), 2 nM VEGF-C(R&D Systems, Minnesota), or 2 nM VEGF165 (R&D Systems, Minnesota) were then added and the plate was again read to measure dimerization of receptors. […]

B1: aNRP2-11v7: humanized, affinity matured anti-NRP2 antibody, target domain b2; VH SEQ ID NO: 51, VL SEQ ID NO: 52 (antibody, V domains shown)
VH: QVQLVQSGAEVKKPGASVKVSCKASGYTFTSFGISWVRQAPGQGLEWIGEIYPRSGNTYYNENFKGRATMTADKSTSTAYMELRSLRSDDTAVYYCARSSGYYGSTPFPYWGQGTLVTVSS
VL: DIQMTQSPSSLSASVGDRVTITCRASQDISNYLNWYQQKPGKAVKLLIYYTSRLHSGVPSRFSGSGSGTDYTFTISSLQPEDIATYYCQQGNTLPWTFGGGTKVEIK
modifications: Variable heavy chain region; Light chain variable region
Regarding B1, the “effect on NRP2-KDR dimerization (in words)” value is reported as “increased the ligand induced dimerization signal”.
